Patent publication US20080194482A1, “Selective Apac2 Receptor Peptide Agonists” (priority 2005, published 2008)
Where a chain is given by its changes, count along the chain named. Names may count otherwise. Numbered stars: 1 amine (or outer) side, 2 acyl side, 3 side chain; on linkers, the order of the positions; unused ones are H or OH. Square brackets hold non-standard residues; d marks the D form. Ends that are not written are not given here. * marks the point of attachment. Tyr(OMe) = O-methyl-tyrosine, COc1ccc(C[C@H](N[*:1])C(=O)[*:2])cc1; Orn = NCCC[C@H](N)C(=O)O; Hexanoyl = CCCCCC(=O)*; Aib = CC(C)(N)C(=O)O

T1: human VPAC2 receptor (human, UniProt P41587 24-438)
T1 sequence (looked up): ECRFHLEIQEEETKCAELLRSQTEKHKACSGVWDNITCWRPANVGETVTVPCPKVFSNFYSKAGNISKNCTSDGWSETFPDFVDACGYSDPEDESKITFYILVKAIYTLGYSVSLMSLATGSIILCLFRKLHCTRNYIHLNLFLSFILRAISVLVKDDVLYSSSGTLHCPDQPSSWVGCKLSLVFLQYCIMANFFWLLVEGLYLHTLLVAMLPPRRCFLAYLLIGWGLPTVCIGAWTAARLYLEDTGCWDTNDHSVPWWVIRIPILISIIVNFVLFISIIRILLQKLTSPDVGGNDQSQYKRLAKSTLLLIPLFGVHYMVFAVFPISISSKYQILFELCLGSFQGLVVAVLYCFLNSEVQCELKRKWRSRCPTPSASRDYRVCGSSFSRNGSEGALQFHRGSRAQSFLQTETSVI

T2: rat VPAC2 receptor (rat, UniProt P35000 23-437)
T2 sequence (looked up): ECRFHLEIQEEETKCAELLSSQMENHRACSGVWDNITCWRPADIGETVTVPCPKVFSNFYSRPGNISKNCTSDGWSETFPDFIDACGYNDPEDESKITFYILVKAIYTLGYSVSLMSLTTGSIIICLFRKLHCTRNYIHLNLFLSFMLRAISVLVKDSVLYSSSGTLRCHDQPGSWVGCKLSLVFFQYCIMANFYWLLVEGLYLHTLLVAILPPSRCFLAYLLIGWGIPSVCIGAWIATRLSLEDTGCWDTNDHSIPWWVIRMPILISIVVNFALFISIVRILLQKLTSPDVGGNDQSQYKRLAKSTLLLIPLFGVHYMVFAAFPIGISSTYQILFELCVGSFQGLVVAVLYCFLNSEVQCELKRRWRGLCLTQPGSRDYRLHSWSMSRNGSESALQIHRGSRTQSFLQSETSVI

T3: rat VPAC1 receptor (rat, UniProt P30083 31-459)
T3 sequence (looked up): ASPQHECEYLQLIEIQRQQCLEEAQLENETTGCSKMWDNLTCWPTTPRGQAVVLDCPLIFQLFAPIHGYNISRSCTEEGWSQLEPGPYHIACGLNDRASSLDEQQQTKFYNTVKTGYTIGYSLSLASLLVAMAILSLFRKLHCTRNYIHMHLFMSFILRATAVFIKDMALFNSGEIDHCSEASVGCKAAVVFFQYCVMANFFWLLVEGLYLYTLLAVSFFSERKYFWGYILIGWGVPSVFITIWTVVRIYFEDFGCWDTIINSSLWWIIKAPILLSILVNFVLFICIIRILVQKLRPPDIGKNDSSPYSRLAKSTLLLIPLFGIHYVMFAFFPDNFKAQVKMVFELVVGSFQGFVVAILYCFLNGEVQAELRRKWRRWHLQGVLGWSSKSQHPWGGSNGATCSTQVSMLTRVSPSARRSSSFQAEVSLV

B1: VPAC2 receptor peptide agonist P418 (peptide)
peptide: HSDAVFTEQYTXLRXQLAAXXYLQSIXXGGPSSGAPPPS
modifications: N-terminal hexanoyl (C6); Tyr(OMe) at 10 and 22; Orn at 12, 21, 27 and 28; Aib at 15 and 20
B2: VPAC2 receptor peptide agonist P393 (peptide)
peptide: B1 peptide with D3E
modifications: N-terminal hexanoyl (C6); Tyr(OMe) at 10; Orn at 12, 21, 27 and 28; Aib at 15 and 20

Molecular target: T1, human VPAC2 receptor
Experiment: cell-based or functional assay

| Binder | Human VPAC2 Receptor: Alpha Screen (EC50; nM), cAMP generation [nM] |
| --- | --- |
| HSDAVFTDNYTXLRXQSAAXKYLQSIXNXGGPSSGAPPPS (N-terminal hexanoyl (C6); Orn at 12, 27 and 29; Aib at 15 and 20) [VPAC2 receptor peptide agonist P389] | 0.16 |
| HSDAVFTDNYTXLRXQVSAXKYLQSIXNXGGPSSGAPPPS (N-terminal hexanoyl (C6); Orn at 12, 27 and 29; Aib at 15 and 20) [VPAC2 receptor peptide agonist P388] | 2760 |
| Hexanoyl-HSDAVFTDNYT[Orn]SR[Aib]QVAA[Aib]KYLQSI[Orn]N[Orn]GGPSSGAPPPS [VPAC2 receptor peptide agonist P391] | 0.48 |
| Hexanoyl-HSDAVFTDNYTLLR[Aib]QVAA[Aib]KYLQSI[Orn]N[Orn]GGPSSGAPPPS [VPAC2 receptor peptide agonist P367] | 6.5 |
| Hexanoyl-HSDAVFTDNYTQLR[Aib]QVAA[Aib]KYLQSI[Orn]N[Orn]GGPSSGAPPPS [VPAC2 receptor peptide agonist P368] | 1.09 |
| Hexanoyl-HSDAVFTDQYTR[Aib]R[Aib]QVAA[Aib]KYLQSIK[Aib]KGGPSSGAPPPS [VPAC2 receptor peptide agonist P406] | 0.12 |
| Hexanoyl-HSDAVFTDQ[Tyr(OMe)]TR[Aib]R[Aib]QLAA[Aib]KYLQSIK[Aib]KGGPSSGAPPPS [VPAC2 receptor peptide agonist P408] | 0.12 |
| HSDAVFTDNYTRLRXQVAAXKYLQSIKXXGGPSSGAPPPS (N-terminal hexanoyl (C6); Aib at 15, 20 and 28; Orn at 29) [VPAC2 receptor peptide agonist P357] | 0.23 |
| B1 | 3.11 |
| B2 | 0.31 |
| HSDAVFTDNYTXLRXQVAAXXYLQSIXXGGPSSGAPPPS (N-terminal hexanoyl (C6); Orn at 12, 21, 27 and 28; Aib at 15 and 20) [VPAC2 receptor peptide agonist P397] | 0.15 |

Molecular target: T2, rat VPAC2 receptor
Experiment: cell-based or functional assay

| Binder | Rat VPAC2 Receptor: DiscoveRx (EC50; nM), cAMP generation [nM] |
| --- | --- |
| HSDAVFTDNYTXLRXQSAAXKYLQSIXNXGGPSSGAPPPS (N-terminal hexanoyl (C6); Orn at 12, 27 and 29; Aib at 15 and 20) [VPAC2 receptor peptide agonist P389] | 0.21 |
| HSDAVFTDNYTXLRXQVSAXKYLQSIXNXGGPSSGAPPPS (N-terminal hexanoyl (C6); Orn at 12, 27 and 29; Aib at 15 and 20) [VPAC2 receptor peptide agonist P388] | 709 |
| Hexanoyl-HSDAVFTDNYT[Orn]SR[Aib]QVAA[Aib]KYLQSI[Orn]N[Orn]GGPSSGAPPPS [VPAC2 receptor peptide agonist P391] | 0.5 |
| Hexanoyl-HSDAVFTDNYTLLR[Aib]QVAA[Aib]KYLQSI[Orn]N[Orn]GGPSSGAPPPS [VPAC2 receptor peptide agonist P367] | 6.14 |
| Hexanoyl-HSDAVFTDNYTQLR[Aib]QVAA[Aib]KYLQSI[Orn]N[Orn]GGPSSGAPPPS [VPAC2 receptor peptide agonist P368] | 1.33 |
| Hexanoyl-HSDAVFTDQYTR[Aib]R[Aib]QVAA[Aib]KYLQSIK[Aib]KGGPSSGAPPPS [VPAC2 receptor peptide agonist P406] | 0.04 |
| Hexanoyl-HSDAVFTDQ[Tyr(OMe)]TR[Aib]R[Aib]QLAA[Aib]KYLQSIK[Aib]KGGPSSGAPPPS [VPAC2 receptor peptide agonist P408] | 0.04 |
| HSDAVFTDNYTRLRXQVAAXKYLQSIKXXGGPSSGAPPPS (N-terminal hexanoyl (C6); Aib at 15, 20 and 28; Orn at 29) [VPAC2 receptor peptide agonist P357] | 0.07 |
| B1 | 0.57 |
| B2 | 0.17 |

Molecular target: T3, rat VPAC1 receptor
Experiment: cell-based or functional assay

| Binder | Rat VPAC1 Receptor: DiscoveRx (EC50; nM), cAMP generation [nM] |
| --- | --- |
| HSDAVFTDNYTXLRXQSAAXKYLQSIXNXGGPSSGAPPPS (N-terminal hexanoyl (C6); Orn at 12, 27 and 29; Aib at 15 and 20) [VPAC2 receptor peptide agonist P389] | 4.4 |
| HSDAVFTDNYTXLRXQVSAXKYLQSIXNXGGPSSGAPPPS (N-terminal hexanoyl (C6); Orn at 12, 27 and 29; Aib at 15 and 20) [VPAC2 receptor peptide agonist P388] | > 2000 |
| Hexanoyl-HSDAVFTDNYT[Orn]SR[Aib]QVAA[Aib]KYLQSI[Orn]N[Orn]GGPSSGAPPPS [VPAC2 receptor peptide agonist P391] | 9.09 |
| Hexanoyl-HSDAVFTDNYTLLR[Aib]QVAA[Aib]KYLQSI[Orn]N[Orn]GGPSSGAPPPS [VPAC2 receptor peptide agonist P367] | 75.3 |
| Hexanoyl-HSDAVFTDNYTQLR[Aib]QVAA[Aib]KYLQSI[Orn]N[Orn]GGPSSGAPPPS [VPAC2 receptor peptide agonist P368] | 20.9 |
| Hexanoyl-HSDAVFTDQ[Tyr(OMe)]TR[Aib]R[Aib]QLAA[Aib]KYLQSIK[Aib]KGGPSSGAPPPS [VPAC2 receptor peptide agonist P408] | 0.35 |
| HSDAVFTDNYTRLRXQVAAXKYLQSIKXXGGPSSGAPPPS (N-terminal hexanoyl (C6); Aib at 15, 20 and 28; Orn at 29) [VPAC2 receptor peptide agonist P357] | 0.69 |
| B1 | 7.76 |
| B2 | 16 |

Molecular target: T1, human VPAC2 receptor
Experiment: filter binding, human VPAC2 membranes, competition with 125I-VIP;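 note: assay plate incubated 1 h with shaking, then filtered, with filter-retained counts measured after adding scintillant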

| Binder | IC50 [nM] |
| --- | --- |
| HSDAVFTDNYTXLRXQSAAXKYLQSIXNXGGPSSGAPPPS (N-terminal hexanoyl (C6); Orn at 12, 27 and 29; Aib at 15 and 20) [VPAC2 receptor peptide agonist P389] | 0.82 |
| HSDAVFTDNYTXLRXQVSAXKYLQSIXNXGGPSSGAPPPS (N-terminal hexanoyl (C6); Orn at 12, 27 and 29; Aib at 15 and 20) [VPAC2 receptor peptide agonist P388] | 100 |
| Hexanoyl-HSDAVFTDNYT[Orn]SR[Aib]QVAA[Aib]KYLQSI[Orn]N[Orn]GGPSSGAPPPS [VPAC2 receptor peptide agonist P391] | 3.67 |
| Hexanoyl-HSDAVFTDNYTQLR[Aib]QVAA[Aib]KYLQSI[Orn]N[Orn]GGPSSGAPPPS [VPAC2 receptor peptide agonist P368] | 28.6 |
| Hexanoyl-HSDAVFTDQYTR[Aib]R[Aib]QVAA[Aib]KYLQSIK[Aib]KGGPSSGAPPPS [VPAC2 receptor peptide agonist P406] | 0.27 |
| Hexanoyl-HSDAVFTDQ[Tyr(OMe)]TR[Aib]R[Aib]QLAA[Aib]KYLQSIK[Aib]KGGPSSGAPPPS [VPAC2 receptor peptide agonist P408] | 0.48 |
| HSDAVFTDNYTRLRXQVAAXKYLQSIKXXGGPSSGAPPPS (N-terminal hexanoyl (C6); Aib at 15, 20 and 28; Orn at 29) [VPAC2 receptor peptide agonist P357] | 0.32 |
| B1 | 8.96 |
| B2 | 0.74 |
| HSDAVFTDNYTXLRXQVAAXXYLQSIXXGGPSSGAPPPS (N-terminal hexanoyl (C6); Orn at 12, 21, 27 and 28; Aib at 15 and 20) [VPAC2 receptor peptide agonist P397] | 0.5 |
